A short description of the data set: yeast display, Sf9 membrane polyspecificity reagent, FACS + sequencing; frameworks hold sequencing errors. The gist of the method:
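Nanobodies came from a synthetic yeast display library in Saccharomyces cerevisiae BJ5465, induced with galactose for 36–48 hours and stained for 1 hour at 4 °C with 10% biotinylated, detergent-solubilized Sf9 membrane reagent. Cells were enriched on streptavidin microbeads and then FACS-sorted, with low and high (top ~1%) gates set on anti-HA fluorescence for expression and streptavidin fluorescence for reagent binding. Each polyreactivity label reflects the gate a clone came from. Genes were amplified by colony PCR, sequenced by MiSeq 2 × 250 and filtered by CDR length.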
Take “QVQLVESGGGLVQAGGSLRLSCAASGRIFIGNAMGWYRQAPGKERELVADISYSGGTTYYADSVKGRFTISRDNAKNTVYLQMNSLKPEDTAVYYCNKYDPRPVWQGWVWIEYYYWGQGTQVTVSS”: the “polyreactivity (PSR sort gate)” value is on record as “low polyreactivity”.

Take “QVQLVESGGGLVQAGGSLRLSCAASGRIFIHNAMGWYRQAPGKERELVAAISSRGSRTSYADSVKGRFTISRDNAKNTVYLQMNSLKPEDTSVYYCNAAPIAKYDYWGQGTQVTVSS”: the “polyreactivity (PSR sort gate)” value is reported as “high polyreactivity”.

Take “QVQLVESGGGLVQAGGSLRLSCAASGRIFIHYAMGGYRHAPGKERELVAAISASGGTTNYADSVKGRFTISRDNAKNTVYLQMNSLKPEDTAVYYCNKDYPQNPLPASSYYLGRFDYWGQGSQVTVSS”: the “polyreactivity (PSR sort gate)” value was “high polyreactivity”.

Consider “QVQLVESGGGLVQAGGSLRLSCAASGRIFIPYAMGWYIQAPGKERELVAAISSSGGSTYYADSVKGRFTISRDTAKNTVYLQMNSLKPEDTEVYFCAARLYWGYAYENYSSLFEYDYWGQGTQVTVSS”, for which the “polyreactivity (PSR sort gate)” value is recorded as “low polyreactivity”.

For the sequence “QVQLVESGGGLVQAGGSLRLSCAASGRIFIRAMGWYRQAPGKERELVAGITNGGITYYADSVKGRFTISRDNAKNTVYLQMISLKPEDTAVYFCNDRSSSVDYNYDYWGQGTQVTVSS”, the “polyreactivity (PSR sort gate)” value is on record as “low polyreactivity”.

With “QVQLVESGGGLVQAGGSLRLSCAASGRIFITNAMGWYRPAPGKERELVAVISYIGGRTYYADSVKGRFTISRDNAKNTVYLQMNSLKPEDTAVYYCAARRSRPTYFSTGVNYWGQGTQVTVSS”, the “polyreactivity (PSR sort gate)” value is recorded as “high polyreactivity”.

As to “QVQLVESGGGLVQAGGSLRLSCAASGRIFITYAMGWYRPAPGTERELVAAIDSRGGSTYYADSVKGRFTISRDNAKNTDYLQMNSLKPEDTSVNYCAAEFYYIWLYEYWGQGTQVTVSS”, the “polyreactivity (PSR sort gate)” value was “high polyreactivity”.

Take “QVQLVESGGGLVQAGGSLRLSCAASGRIFIYYAMGWYRQAPGKERELVAAISWGGGRTYYADSVKGRFTLSRYNAKNTVYLQMNSLKPEDTAVYYCAAGVYTGQNEYDYWGQGTQVTVSS”: the “polyreactivity (PSR sort gate)” value is reported as “low polyreactivity”.

With “QVQLVESGGGLVQAGGSLRLSCAASGRIFIYYTMGWYRPAPGKERELVASITWSGGRTYYADSVKGRFTISRDNAKNTVYLQMNSLKPEDNAVYYCNAGYSIGLVAYGYWGQGTQVTVSS”, the “polyreactivity (PSR sort gate)” value is listed as “low polyreactivity”.

With “QVQLVESGGGLVQAGGSLRLSCAASGRIFKAYAMGWYRQAPGKERELVAAITSTGSTYYADSVKGRFTISRDNAKNTVYLQMNSLKPEDTAVYSCARRPSYYQGDYWGQGTQVTVSS”, the “polyreactivity (PSR sort gate)” value is listed as “high polyreactivity”.

Turning to “QVQLVESGGGLVQAGGSLRLSCAASGRIFKDHAMGWYRQAPGKERELVAGITSIGDNTYYADSVKGRFTISRDNAKNTVYLQMNSLKPEHTAVYYCNADYGYDSVVEYDYWGQGTQVTVSS”, the “polyreactivity (PSR sort gate)” value was “low polyreactivity”.

As for “QVQLVESGGGLVQAGGSLRLSCAASGRIFKFYAMGWYRQAPGKERELVAAISRTGGNTYYADSVKGRFTISRDNAKNTVYLQMNSLKPEDTAVYYCAAETYARSSSSKYEYWGQGTQVTVSS”, the “polyreactivity (PSR sort gate)” value is recorded as “high polyreactivity”.

Turning to “QVQLVESGGGLVQAGGSLRLSCAASGRIFKGYAMGWYRQAPGKERELVAAITWRGGTTYYADSVKGRFTISRDNAKNTVYLQMNSLKPEDTAVYYCAVSGKTAHSPQRYYYWGQGTQVTVSS”, the “polyreactivity (PSR sort gate)” value is recorded as “high polyreactivity”.

For “QVQLVESGGGLVQAGGSLRLSCAASGRIFKIYAMGWYRQAPGKERELVAAISRGGRTYYADSVKGRFTISRDNAKNTVYLQMNSLKPEDTAVYYCAADLLISPEFYYWGQGTQVTVSS”, the “polyreactivity (PSR sort gate)” value is listed as “high polyreactivity”.

Regarding “QVQLVESGGGLVQAGGSLRLSCAASGRIFKKNAMGWYRQAPGKERELVAAISYRGGSTYYADSVKGRFTISRDNAKNTVYLQMNSLKPEDTAVYYCNVGSRGGWDASDYDYWGQGTQVTVSS”, the “polyreactivity (PSR sort gate)” value is given as “high polyreactivity”.

“QVQLVESGGGLVQAGGSLRLSCAASGRIFKLYAMGWDRQAPGKERELVAAISKSGGNTYADSVKGRFTISRDNAKNTVYLQMNSLKPEDTAVYYCAATVQSTSDPFDYWGQGTQVTVSS”: the “polyreactivity (PSR sort gate)” value is listed as “low polyreactivity”.

With “QVQLVESGGGLVQAGGSLRLSCAASGRIFKLYAMGWYRQAPGKERELGAAISTSAGSTNYADSEKGRFTISRDNAKNTVYLQMNSLKPEDPAVYYCAVAGVSTYYTYYYWGQGTQVTVSS”, the “polyreactivity (PSR sort gate)” value was “low polyreactivity”.

Turning to “QVQLVESGGGLVQAGGSLRLSCAASGRIFKLYAMGWYRQAPGKERELVAAISTSAGSTNYADSVKGRFTISRDNEKNTVYLQMNSLKPEDTAVYYCAVAGVSTYYTYYYWGQGTQVTVSS”, the “polyreactivity (PSR sort gate)” value was “low polyreactivity”.

For the sequence “QVQLVESGGGLVQAGGSLRLSCAASGRIFKQYALGWYRQAPGKERELVAAISVRGGITYYADSVKGRFTISRDNAKNTVYLQMNSLKPEDTAVYYCAKRSYRTHTYDYWGQGTQVTVSS”, the “polyreactivity (PSR sort gate)” value is “low polyreactivity”.

As for “QVQLVESGGGLVQAGGSLRLSCAASGRIFKQYAMGWYRQAPGKERELVAAISWDGGSTYYADSVKGRFTISRDNAKNTVYLQMNSLKPEDTAVYDCNKDLYYAYDYWGQGTQVTVSS”, the “polyreactivity (PSR sort gate)” value was “low polyreactivity”.

Turning to “QVQLVESGGGLVQAGGSLRLSCAASGRIFKRNAMGWYRQAPGKERELVAAISSGTSTNYADSVKGRFTISRDNAKNTVYLQMNSLKPEDTAVYYCAVRPVDYRGYYYWGQGTQVTVSS”, the “polyreactivity (PSR sort gate)” value was “high polyreactivity”.

In the case of “QVQLVESGGGLVQAGGSLRLSCAASGRIFKRYTMGWYRQAPGQERELVAGITFSGGSTYYADSVKGRFTISRDNAKNTVYLQMNSLKPEDTAVYYCNARVPPQGWGPWKAFDYWGQGTQVTVSS”, the “polyreactivity (PSR sort gate)” value was “low polyreactivity”.

In the case of “QVQLVESGGGLVQAGGSLRLSCAASGRIFKSYAMGWYRPAPGKERELVAAINWSGGSTYYADSVKGRFTISRDTAKNTVYLQMNSLKPEDTAVYYCNALYAVRSYDSWGQGTQVTVSS”, the “polyreactivity (PSR sort gate)” value is listed as “high polyreactivity”.

For the sequence “QVQLVESGGGLVQAGGSLRLSCAASGRIFKTNAMGWYRQAPGKERELVAGITSGGGTNYADSVKGRFTISRDNAKNTVYLQMNSLKPEDTAVYYCAKDRNFRHIKYSWGGYPYTMDYWGQGTQVTVSS”, the “polyreactivity (PSR sort gate)” value is reported as “low polyreactivity”.

“QVQLVESGGGLVQAGGSLRLSCAASGRIFKTYAMGWYRQAPGKERELVAAITSGGSTYYADSVKGRFTISRDNAKNTVYLQMNSLKPEDTAVYYCNRVYRYVYSWAYNYWGQGTQVTVSS”: the “polyreactivity (PSR sort gate)” value is “high polyreactivity”.

“QVQLVESGGGLVQAGGSLRLSCAASGRIFKTYAMGWYRQAPGKERELVAAITWDVVRTYYADSVKGRFTISRDNAKNTVYLQMNSLKPEETAVYYCAAEGIRRSQRFNYWGQGTQVTVSS”: the “polyreactivity (PSR sort gate)” value is “high polyreactivity”.

In the case of “QVQLVESGGGLVQAGGSLRLSCAASGRIFKVYTMGWYRQAPGKERELVATITRSGTSTYYADSVKGRFTISRDNAKNTVYLQMNSLKPEDTAVYYCARRVGYKFSYDYWGQGTQVTVSS”, the “polyreactivity (PSR sort gate)” value is listed as “high polyreactivity”.

As for “QVQLVESGGGLVQAGGSLRLSCAASGRIFKWYAMGWYRQAPGKEREFVAGIRWGGGRTHYADSVKGRFTISRDNAKNTVYLQMNSLKPEDTAVYYCAATSIGRYKSRLDYWGQGTQVTVSS”, the “polyreactivity (PSR sort gate)” value is on record as “high polyreactivity”.

On to “QVQLVESGGGLVQAGGSLRLSCAASGRIFKYNAKGWYRQAPGKERELVAAISGTGGSTYYADSVKGRFTISRDNAKNTVYLQMNSLKPEDTAVYYCNRRYYGHSTWKYDYWAQGTQVTVSS”, for which the “polyreactivity (PSR sort gate)” value was “high polyreactivity”.

On to “QVQLVESGGGLVQAGGSLRLSCAASGRIFKYYAMGWYREAPGKERELVAAIDWRGDSTYYADSVKGRFTISRDHAKNTVYLQMNSLKPEDTAVYYCAVVGTRGYHGYDSWGQGTQVTVSS”, for which the “polyreactivity (PSR sort gate)” value is “low polyreactivity”.

As to “QVQLVESGGGLVQAGGSLRLSCAASGRIFKYYAMGWYRPAPGKERELVAAISRSSGRTYYADSVKGRFTISRDNAKNTVYFQMNSLKPEDTAVYYCNALPSTVYLTYDYWGQGTQVTVSS”, the “polyreactivity (PSR sort gate)” value is on record as “high polyreactivity”.

Consider “QVQLVESGGGLVQAGGSLRLSCAASGRIFKYYAMGWYRQAPGKERELVAAISQNGGRTYYADSVKGRFTISRDNAKNTVYLQMNSLKPEDTAVYYCAAGWRSYAGYYQGEFGYWGQGTQVTVSS”, for which the “polyreactivity (PSR sort gate)” value is “high polyreactivity”.

As for “QVQLVESGGGLVQAGGSLRLSCAASGRIFKYYAMGWYRQAPGKERELVAAISRSGGRTYYADSVKGRFTISRDNAKNTVYLQMNSLKPEDTAVYYCNARVYSGHNYWGQGTQVTVSS”, the “polyreactivity (PSR sort gate)” value was “high polyreactivity”.

For the sequence “QVQLVESGGGLVQAGGSLRLSCAASGRIFKYYAMGWYRQAPGKERELVAAITSSGVSTYADSVKGRFTISRDNAKNTVYLQMISLKPEDTAVYYCADDYVREGLGYDYWGQGTQVTVSS”, the “polyreactivity (PSR sort gate)” value is listed as “low polyreactivity”.

Turning to “QVQLVESGGGLVQAGGSLRLSCAASGRIFKYYAMGWYRQAPGKERELVAAITYSGGSTYADSVKGRFTISRDNAKNTVYLQMNSLKPEDTAVYYCAVARRSRVVSSIRGDYWGQGTQVTVSS”, the “polyreactivity (PSR sort gate)” value is “high polyreactivity”.

With “QVQLVESGGGLVQAGGSLRLSCAASGRIFKYYGMGWYRQAPGKERELVAAISRGSSTNYADSVKGRFTISRDNAKNTVYLQMNSLKPEDTAVYYCAVSLRRGGSGYAYDYWGQGTQVTVSS”, the “polyreactivity (PSR sort gate)” value is given as “high polyreactivity”.

Turning to “QVQLVESGGGLVQAGGSLRLSCAASGRIFKYYGMGWYRQAPGKESELVAAITRGDSTNYADSVKGRFTISRDNAKNTVYLQMNSLKPEDTAVYYCNVGTRRGYDYWGQGTQVTVSS”, the “polyreactivity (PSR sort gate)” value is “high polyreactivity”.

In the case of “QVQLVESGGGLVQAGGSLRLSCAASGRIFKYYTMGWYRQAPGKERELVAAISRDDSTNYADSVKGRFTISRDNAKNTVYLQMNSLKPEDTAVYYCAKGYHQYAGFYYWGLGTQVTVSS”, the “polyreactivity (PSR sort gate)” value is given as “high polyreactivity”.

With “QVQLVESGGGLVQAGGSLRLSCAASGRIFKYYTMGWYRQATGKEREFVASITGSGGTTYYADSVKGRFTISRDNAKNTVYLQMNSLKPEDTAVYYCNAYSYPYWYRYYYWGQGTQVTVSS”, the “polyreactivity (PSR sort gate)” value was “high polyreactivity”.

In the case of “QVQLVESGGGLVQAGGSLRLSCAASGRIFKYYVMGWYRQAPGKERELVATISRRDASTYYADSVKGRFTISRDNAKNTVYLQMNSLKPEDTAVYYCNADRARSERIKYDYWGQGTQGTVSS”, the “polyreactivity (PSR sort gate)” value was “high polyreactivity”.

For “QVQLVESGGGLVQAGGSLRLSCAASGRIFLDYAMGWYRQAPGKERELVAAIRYSGVGTYYADSVKGRFTISRDNAKNTVYLQMNSLKPEDTAVYYCNAVTKVGYLRRRDYWGQGTQVTVSS”, the “polyreactivity (PSR sort gate)” value was “high polyreactivity”.

The record behind these values is the nanobody polyreactivity screen of Harvey et al. (2022).
